The values that follow come from the RNAGym collection of RNA variant scans (doi:10.1093/molbev/msab373).

B1: Azoarcus group I ribozyme (parent)
chain: GUGCCUUGCGCCGGGAAACCACGCAAGGGAUGGUGUCAAAUUCGGCGAAACCUAAGCGCCCGCCCGGGCGUAUGGCAACGCCGAGCCAAGCUUCGGCGCCUGCGCCGAUGAAGGUGUAGAGACUAGACGGCACCCACCUAAGGCAAACGCUAUGGUGAAGGCAUAGUCCAGGGAGUGGCGAAAGUCACACAAACCGG

In this data set the parent is B1. Briefly: reverse-splicing fitness (ratio to wild type); higher = more active; in vitro selection; Mg2+ level not given. In outline:
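An in vitro group I ribozyme library with randomized positions was T7-transcribed and gel-purified. In triplicate, 10 pmol RNA in EPPS pH 7.5 was reacted with 50 pmoles of a 30-nt RNA substrate for 1 h at 37 °C across several added MgCl2 levels (1–48 mM), then stopped with EDTA. Products were reverse transcribed from a substrate-complementary primer, PCR-amplified and sequenced (HiSeq 4000). Fitness is a variant's read proportion after selection over that before, normalised to wild type.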
In the case of C82G A111C A120U C150G C169A U176C, the reverse-splicing fitness was 0.0071. Turning to C82G A111C A120U C150G C169A U176G, the reverse-splicing fitness was determined as 0.00331.

For the variant C82G A111C A120U C150G C169A U176A, the reverse-splicing fitness was determined as 0.00878.

Turning to C82G A111C A120U A145G C150G C169A U176A, the reverse-splicing fitness stood at 0.0121. On to C82G A111C A120U A145G C150G C169A U176G, for which the reverse-splicing fitness is 0.00544. As to C82G A111C A120U A145G C150G C169A U176C, the reverse-splicing fitness was determined as 0.00861. As for C82G A111C A145C C150A C169G, the reverse-splicing fitness was 0.00856.

As for C82G A111C A145C C150A C169U, the reverse-splicing fitness is 0.00955. On to C82G A111C A145C C150A C169A, for which the reverse-splicing fitness came out at 0.00842. Take C82G A111C A120U C150A C169A U176G: the reverse-splicing fitness came out at 0.00289. With C82G A111C A120U C150A C169A U176C, the reverse-splicing fitness is 0.00453.

Consider C82G A111C A120U C150A C169A U176A, for which the reverse-splicing fitness was determined as 0.00668.

For C82G A111C A120U C150G C169U, the reverse-splicing fitness is 0.00609. On to C82G A111C A120U C150G C169G, for which the reverse-splicing fitness was 0.00669.

C82G A111C A120U C150G C169A: the reverse-splicing fitness turned out to be 0.00763.

Turning to C82G A111C A120U A145C C150U C169A U176G, the reverse-splicing fitness was 0.0025. On to C82G A111C A120U A145C C150U C169A U176C, for which the reverse-splicing fitness worked out at 0.0022. As for C82G A111C A120U A145C C150U C169A U176A, the reverse-splicing fitness is 0.00238. With C82G A111C A120U A145G C150G C169G, the reverse-splicing fitness came to 0.00703. Take C82G A111C A120U A145G C150G C169A: the reverse-splicing fitness amounted to 0.00854. As for C82G A111C A120U A145G C150G C169U, the reverse-splicing fitness stood at 0.00758. Turning to C82G A111C A120U A145C C169A U176A, the reverse-splicing fitness came out at 0.0016.

Regarding C82G A111C A120U A145C C169A U176C, the reverse-splicing fitness was 0.00237. Regarding C82G A111C A120U A145C C169A U176G, the reverse-splicing fitness was 0.00216. Take C82G A111C A120U A145G C150A: the reverse-splicing fitness was found to be 0.0106.

On to C82G A111C A120U A145G C150U, for which the reverse-splicing fitness was 0.0408. As for C82G A111C A120U A145G C150G, the reverse-splicing fitness was 0.0111. Turning to C82G A111C A145G C150G C169A, the reverse-splicing fitness came out at 0.0091.

For C82G A111C A145G C150G C169U, the reverse-splicing fitness is 0.0089. Turning to C82G A111C A145G C150G C169G, the reverse-splicing fitness came to 0.00707. On to C82G A111C A120U A145C C169U, for which the reverse-splicing fitness turned out to be 0.00341.

On to C82G A111C A120U A145C C169G, for which the reverse-splicing fitness was 0.00323.

In the case of C82G A111C A120U A145C C169A, the reverse-splicing fitness stood at 0.00204. On to C82G A111C A120U A145U C150G C169G U176C, for which the reverse-splicing fitness turned out to be 0.00317. C82G A111C A120U A145U C150G C169G U176G: the reverse-splicing fitness came to 0.00242. For C82G A111C A120U A145U C150G C169G U176A, the reverse-splicing fitness was determined as 0.00287. Take C82G A111C A120U A145G C150A C169A U176A: the reverse-splicing fitness stood at 0.00791. To C82G A111C A120U A145G C150A C169A U176G belongs 0.0032. To C82G A111C A120U A145G C150A C169A U176C belongs 0.00453. Regarding C82G A111C A120U A145G C150G U176C, the reverse-splicing fitness is 0.009. The value for C82G A111C A120U A145G C150G U176G was 0.00447; that for C82G A111C A120U A145G C150G U176A was 0.00628; that for C82G A111C A120U A145U C150G C169U was 0.00326. To C82G A111C A120U A145U C150G C169A belongs 0.00457. For C82G A111C A120U A145U C150G C169G, the reverse-splicing fitness turned out to be 0.00414. As for C82G A111C A120U A145G C150U C169A, the reverse-splicing fitness turned out to be 0.00785. As for C82G A111C A120U A145G C150U C169G, the reverse-splicing fitness came to 0.00657.

Take C82G A111C A120U A145G C150U C169U: the reverse-splicing fitness was determined as 0.00642. For C82G A111C A145C U176G, the reverse-splicing fitness was 0.0504. Turning to C82G A111C A145C U176A, the reverse-splicing fitness was 0.126.

On to C82G A111C A145C U176C, for which the reverse-splicing fitness is 0.137.

Take C82G A111C A120U A145U C169A: the reverse-splicing fitness is 0.00231. The value for C82G A111C A120U A145U C169G was 0.00373; that for C82G A111C A120U A145U C169U was 0.00412.

Regarding C82G A111C A120U A145C C150G C169G U176A, the reverse-splicing fitness is 0.00317.

For C82G A111C A120U A145C C150G C169G U176G, the reverse-splicing fitness came to 0.00233. For C82G A111C A120U A145C C150G C169G U176C, the reverse-splicing fitness is 0.00245.

For C82G A111C A120U A145C C150G U176C, the reverse-splicing fitness worked out at 0.00457. In the case of C82G A111C A120U A145C C150G U176A, the reverse-splicing fitness turned out to be 0.00364.

On to C82G A111C A120U A145C C150G U176G, for which the reverse-splicing fitness was 0.00221.

Regarding C82G A111C A145G C150A C169G U176A, the reverse-splicing fitness came to 0.0149. For the variant C82G A111C A145G C150A C169G U176C, the reverse-splicing fitness amounted to 0.0256. For the variant C82G A111C A145G C150A C169G U176G, the reverse-splicing fitness is 0.00825. To C82G A111C A120U A145G C150G C169G U176C belongs 0.00829; to C82G A111C A120U A145G C150G C169G U176A, 0.00983; to C82G A111C A120U A145G C150G C169G U176G, 0.00427. As to C82G A111C A120U A145G C150U U176G, the reverse-splicing fitness was found to be 0.00399. On to C82G A111C A120U A145G C150U U176A, for which the reverse-splicing fitness is 0.0115. C82G A111C A120U A145G C150U U176C: the reverse-splicing fitness was 0.0162. C82G A111C A120U A145G C169G U176A: the reverse-splicing fitness was found to be 0.00387. In the case of C82G A111C A120U A145G C169G U176C, the reverse-splicing fitness amounted to 0.00363. The value for C82G A111C A120U A145G C169G U176G was 0.00194; that for C82G A111C A120U C169A U176C was 0.00457. In the case of C82G A111C A120U C169A U176G, the reverse-splicing fitness came out at 0.00246. To C82G A111C A120U C169A U176A belongs 0.00425; to C82G A111C A120U A145U C169U U176G, 0.00187; to C82G A111C A120U A145U C169U U176C, 0.00318. The value for C82G A111C A120U A145U C169U U176A was 0.00319. For the variant C82G A111C A120U A145U C169G U176A, the reverse-splicing fitness came to 0.00269.

On to C82G A111C A120U A145U C169G U176G, for which the reverse-splicing fitness was 0.00162. As for C82G A111C A120U A145U C169G U176C, the reverse-splicing fitness is 0.00239. C82G A111C A120U A145U C150G C169U U176C: the reverse-splicing fitness came to 0.00292.

As to C82G A111C A120U A145U C150G C169U U176A, the reverse-splicing fitness stood at 0.00309.
